These are literature values, as cited in article PMC11962798.

The series concerns the target Spike protein RBD (SARS-CoV-2) (UniProt P0DTC2).

Broadly, the Kd is the constant that tells how readily two partners part at equilibrium. For the substance Bamlanivimab, the dissociation constant Kd is 1.5 nM.
